Results taken from the supplement of paper PMC10567573.
± gives the standard deviation.

Test: protein stability index of a GFP-peptide fusion (GPS, HEK-293T) (PSI 1-6); higher = more stable
[1] = treatment: DMSO, c terminus: a fixed tail appended
[2] = treatment: MLN4924 1 uM, 8 h, c terminus: a fixed tail appended
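Note: 24-mer peptide tiles fused after GFP, lentivirally expressed, FACS-sorted into six equal bins by GFP/DsRed ratio, decoded by Illumina sequencing, PSI is the read-weighted mean bin number.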

| Sequence | protein stability index [1] | protein stability index [2] | protein stability index (treatment: DMSO, c terminus: native) | protein stability index (treatment: MLN4924 1 uM, 8 h, c terminus: native) |
| --- | --- | --- | --- | --- |
| QTLDKKLMSDLRRKRTAHERAKEL [INTS4] | 4.22 ± 0.27 | 4.26 ± 0.25 | – | – |
| QVAMRCRCSSMHFLVAEWNEPSIN [SAT1] | 2.23 ± 0.53 | 2.27 ± 0.2 | – | – |
| QVLIKHSADVNARDKNWQTPLHVA [ANKRD44] | 3.15 ± 0.34 | 3.01 ± 0.32 | – | – |
| QWGAEPEGSCYQTFRQYCGAACTC [RNF208] | 3 ± 0.47 | 3.06 ± 0.34 | – | – |
| RAFVSIQEEMAEDPLTYKSRLMVV [RHOBTB2] | 2.74 ± 0.39 | 2.18 ± 0.4 | – | – |
| RALKFRERDALEAVFRFWAGGEKG [DNAAF3] | 2.32 ± 0.07 | 2.59 ± 0.43 | – | – |
| RARLDSMVLLIMKLDQLDQDIENA [DLC1] | 2.47 ± 0.22 | 2.4 ± 0.39 | – | – |
| RATNHLDQVPSMQDGSESFFFRHG [SPAG8] | 3.51 ± 0.1 | 3.62 ± 0.28 | – | – |
| RCACAASSDESPGSKCSPEDLATA [TTC32] | 3.83 ± 0.49 | 4.08 ± 0.23 | – | – |
| RCPSSSLHMSQRERTWPPPAMSPY [C22orf15] | 2.89 ± 0.3 | 2.9 ± 0.27 | – | – |
| RCSSMHFLVAEWNEPSINFYKRRG [SAT1] | 2.86 ± 0.33 | 2.42 ± 0.28 | – | – |
| RDVVLCSLLNFLPEGVNKLKISPV [TENT5C] | 2.2 ± 0.44 | 2.02 ± 0.43 | – | – |
| REEEKTFWKKYRTFWKEDKAFWKE [CCDC70] | 2.57 ± 0.2 | 2.75 ± 0.22 | – | – |
| RELGVWRSLLRLRATRAGAAEEPG [C2CD2L] | 3.15 ± 0.24 | 3.27 ± 0.33 | – | – |
| RELKAKLSGVEEELQRTKQEVLSL [SASS6] | 4.47 ± 0.41 | 4.46 ± 0.22 | – | – |
| RFEEPKGPPARQEDSKELRALRKM [CBY2] | 4.91 ± 0.43 | 4.99 ± 0.2 | – | – |
| RFFLGDLCSRQDLYPALKGVNTVF [NSDHL] | 2.19 ± 0.26 | 2.14 ± 0.54 | – | – |
| RFGVRPKVTGYLISYSSMLGAVAG [MFSD9] | 2.58 ± 0.54 | 2.29 ± 0.31 | – | – |
| RFQAMEETHLRHMKALLGSYAHSV [FCHO1] | 2.38 ± 0.37 | 2.38 ± 0.31 | – | – |
| RGDSVKVENPSTASHSLSPSEHVQ [ZNF649] | 5.08 ± 0.37 | 5.19 ± 0.6 | – | – |
| RGRASGFAGSMFGSVALGPVCPTV [KRT71] | 2.7 ± 0.14 | 2.88 ± 0.28 | – | – |
| RIHSGEKPYECNECGKAFSQSSYL [ZNF232] | 2.85 ± 0.068 | 3.1 ± 0.35 | – | – |
| RITQYLDAGGIPRTAQSEETRVWH [CAMK2A] | 3.03 ± 0.29 | 3.24 ± 0.39 | – | – |

| Sequence | protein stability index [1] | protein stability index [2] | protein stability index (treatment: DMSO, c terminus: native) | protein stability index (treatment: MLN4924 1 uM, 8 h, c terminus: native) |
| --- | --- | --- | --- | --- |
| RIVKIWDMTPVVGCSLATGFSPH [WDFY1] | – | – | 2.05 ± 0.28 | 2.34 ± 0.32 |
| RKDPYGKPVDMWACGVILYILLVG [CAMK2D] | 2.53 ± 0.12 | 3.04 ± 1.1 | – | – |
| RKPAAGAQSAGTQQVAAVSSVSPA [BRD3] | 4.82 ± 0.12 | 4.86 ± 0.16 | – | – |
| RLLQEEDRRKKIARMGFNASSMLR [DCAF4] | 2.52 ± 0.22 | 2.57 ± 0.25 | – | – |
| RLQEVRESIRRAQVSQVKGAARLA [FCHSD1] | 3.17 ± 0.45 | 3.3 ± 0.28 | – | – |
| RNPDQRKESLCISITVSKVDKDQP [FBXO34] | 3.6 ± 0.41 | 3.88 ± 0.24 | – | – |
| RPQHSHSNKKRPSLDGRDPGNGTH [ELOA2] | 4.94 ± 0.44 | 4.82 ± 0.39 | – | – |
| RQDAKYLNMRSTYAKLAAVAVFFI [SEC22B] | 2.35 ± 0.4 | 2.15 ± 0.25 | – | – |
| RQDSPSPDFYKQSSPNLQVSSDGT [PCDHGC5] | 4.86 ± 0.34 | 4.88 ± 0.18 | – | – |
| RQVRDKTLKRGYFQKSLVLISKLP [DENND6A] | 2.27 ± 0.15 | 2.36 ± 0.41 | – | – |
| RRLRGEQRGQEPLGPGALHFDLRD [TCF25] | 4.24 ± 0.22 | 4.43 ± 0.21 | – | – |
| RRPVNVPLDMFSEEIKFYELGEEA [KCNA1] | 3.62 ± 0.33 | 3.84 ± 0.17 | – | – |
| RRVDFCKDPSAIGKKQVPCFASML [CASP6] | 2.43 ± 0.17 | 2.54 ± 0.23 | – | – |
| RSGAGVALLNDHIYVVGGFDGTAH [KLHL12] | 2.78 ± 0.43 | 2.37 ± 0.46 | – | – |
| RTVQSLEIDLDSMRNLKASLENSL [KRT18] | 3.14 ± 0.45 | 3.25 ± 0.27 | – | – |
| RVAAAAGSGPSPPGSPGHDRERQP [PI4K2A] | 5.31 ± 0.5 | 5.42 ± 0.27 | – | – |
| RVRGRVGTIRPVRCPSSSLHMSQR [C22orf15] | 3.14 ± 0.28 | 3.57 ± 0.19 | – | – |
| RVSAMRDYRGPDCRYLNFTKGEEI [MIA2] | 3.02 ± 0.58 | 3.26 ± 0.49 | – | – |
| RWEPSGKAEPRLPDRVYIHPDSPA [TBX6] | 3.98 ± 0.11 | 4.13 ± 0.18 | – | – |
| RYHRFISFALYLAGFCMFVLSLVK [CDS1] | 2.02 ± 0.21 | 2.08 ± 0.44 | – | – |
| RYIVNGSHEANKLQDMLDGFIKKF [EIF5] | 1.98 ± 0.23 | 2.17 ± 0.34 | – | – |
| SAAHEVELQRQKEAEKLERQLALP [NOP53] | 4.99 ± 0.33 | 5.19 ± 0.23 | – | – |
| SAAVRGHPRALPPDARPHRRPHEL [HAGHL] | 4.404 ± 0.036 | 4.47 ± 0.13 | – | – |

| Sequence | protein stability index [1] | protein stability index [2] | protein stability index (treatment: DMSO, c terminus: native) | protein stability index (treatment: MLN4924 1 uM, 8 h, c terminus: native) |
| --- | --- | --- | --- | --- |
| SATLRSFEGLMGTIKSKVSGGKRA [TPD52L3] | 3.51 ± 0.18 | 3.33 ± 0.56 | – | – |
| SCEEVAASSASLEPMWSGSTMRRM [EMID1] | 4.09 ± 0.3 | 4.35 ± 0.18 | – | – |
| SCKACGYRGMLDTHHKLCTFILKN [EIF5] | 2.55 ± 0.35 | 2.77 ± 0.46 | – | – |
| SCPNGMSAENGLEKSGFSQHQNKS [DLC1] | 4.86 ± 0.17 | 5.06 ± 0.11 | – | – |
| SDLNTNNLLFKPPVESHIQKNKKI [KMT2E] | 4.31 ± 0.16 | 4.45 ± 0.39 | – | – |
| SDSIAYDKGEKLLRCKLAAFYRLA [ADD1] | 2.33 ± 0.49 | 2.34 ± 0.28 | – | – |
| SDTEAQCEVMQEIVDQVLEEDFDS [INTS3] | 5.56 ± 0.091 | 5.42 ± 0.34 | – | – |
| SEEDGEARTQMILLRRSVEGASSD [PHTF1] | 5.18 ± 0.21 | 5.23 ± 0.12 | – | – |
| SEKGKPYVDIQGLTASTMEILLDF [KLHL12] | 2.06 ± 0.5 | 2.25 ± 0.6 | – | – |
| SESETSTMAAKKNRQSSDKQNGRV [C18orf25] | 5.35 ± 0.17 | 5.16 ± 0.17 | – | – |
| SFWNDCISSGLRGCMLIELALRGR [GOLPH3] | 2.71 ± 0.35 | 2.66 ± 0.75 | – | – |
| SGAEGHSHSCYHDTRSGFWYVCRT [TRIM35] | 2.45 ± 0.17 | 2.64 ± 0.24 | – | – |
| SGATTTAPSLSGKGNPEEEDVDTS [CTNNB1] | 5.61 ± 0.31 | 5.62 ± 0.17 | – | – |
| SGFSARERLERAVSDRLAPGAPRG [MYCL] | 4.13 ± 0.3 | 4.16 ± 0.2 | – | – |
| SGGYGQDALGMDPMMEHEMGGHHP [CTNNB1] | 4.65 ± 0.18 | 4.69 ± 0.23 | – | – |
| SGLDDFFLDIDTSAVEKEPARAPP [SERTAD3] | 4.71 ± 0.24 | 4.75 ± 0.31 | – | – |
| SGRPHLPGKKKIRWDPVRRRFIQS [KLHDC10] | 3.35 ± 0.26 | 3.21 ± 0.4 | – | – |
| SIGDIESCKLVRDKITGQSLGYGF [ELAVL3] | 2.72 ± 0.21 | 2.55 ± 0.17 | – | – |
| SILNSCEDPVPGMLFFLPPGQHLS [FBXO34] | 2.46 ± 0.2 | 2.41 ± 0.22 | – | – |
| SKRMTFQMPKFDLGPLLSEPLVLY [MYOZ1] | 2.36 ± 0.39 | 2.26 ± 0.28 | – | – |
| SKVIEILDSQTEIYQYVQNSMAPH [DLC1] | 2.6 ± 0.3 | 2.71 ± 0.28 | – | – |
| SLAHCRHDGEDVACPQGGVQYGAG [LOXL2] | 4.65 ± 0.5 | 3.96 ± 0.41 | – | – |
| SLDKVQRSLGPRAPSLRRHVLIHN [SERTAD3] | 3.02 ± 0.32 | 2.96 ± 0.29 | – | – |

| Sequence | protein stability index [1] | protein stability index [2] | protein stability index (treatment: DMSO, c terminus: native) | protein stability index (treatment: MLN4924 1 uM, 8 h, c terminus: native) |
| --- | --- | --- | --- | --- |
| SLLSKARGIDSSSVKLRGSSLFMD [WEE1] | 2.75 ± 0.2 | 2.49 ± 0.19 | – | – |
| SLPQNQCYMATTKSQTACLPFVLA [EHMT1] | 2.35 ± 0.08 | 2.23 ± 0.15 | – | – |
| SLTDSVNHHSPGGSSDASGSYSST [ESRRG] | 4.99 ± 0.28 | 5.1 ± 0.15 | – | – |
| SMTAGVSEREANDALNAYVCKGLP [INTS3] | 4.37 ± 0.16 | 4.38 ± 0.14 | – | – |
| SMVPPSPAMAASKALGSDLDSSLA [SNAP91] | 4.59 ± 0.097 | 4.6 ± 0.26 | – | – |
| SNLQAMSTQMFQTKRCFRLAPTFS [SMG5] | 2.17 ± 0.36 | 2.2 ± 0.14 | – | – |
| SNTGSESNSATVEEPPTDPIPEDE [SMARCE1] | 5.48 ± 0.45 | 5.33 ± 0.51 | – | – |
| SPEQQFDRSVQRLLATRIAVYLMT [TMEM175] | 2.31 ± 0.51 | 2.43 ± 0.66 | – | – |
| SPEVESLPVASSSTLLPLAPSNST [NFE2L1] | 5.04 ± 0.23 | 5.27 ± 0.13 | – | – |
| SPKGTLPPAALESSDSANTTIEDE [CAMK2B] | 5.64 ± 0.16 | 5.54 ± 0.29 | – | – |
| SPNLNVVDGRLTYPTCGIGYPVSS [SASS6] | 3.06 ± 0.44 | 3.14 ± 0.4 | – | – |
| SPRSTSVTTTSSASVTTTSNASGR [KRT13] | 5.31 ± 0.2 | 5.32 ± 0.12 | – | – |
| SPSHKGIAAPHAGANVKPRNSTPP [ZC2HC1A] | 4.92 ± 0.092 | 4.86 ± 0.54 | – | – |
| SPSSDRVSAIIWEGNECKKMDMSV [PHTF1] | 3.6 ± 0.26 | 3.73 ± 0.43 | – | – |
| SPWADGTPCGPAQACMGGRCLHMD [ADAMTS4] | 4.28 ± 0.21 | 4.47 ± 0.36 | – | – |
| SQIQGLIGSVEEQLAQLRCEMEQQ [KRT16] | 4.387 ± 0.042 | 4.52 ± 0.28 | – | – |
| SQMVSTDNSLSSQNYISQKEDASE [MIA2] | 5.29 ± 0.44 | 5.21 ± 0.26 | – | – |
| SQPLDREATSHYIIELLASDAGSP [PCDHGC5] | 3.33 ± 0.27 | 3.52 ± 0.2 | – | – |
| SRRYTEMALPFFSLAEVRVGYQSQ [MYORG] | 2.3 ± 0.16 | 2.29 ± 0.039 | – | – |
| SRSHDRLPYQRRYRERRDSDTYRC [CLK3] | 4.09 ± 0.27 | 4.24 ± 0.36 | – | – |
